From patent US20110268660A1, “METHOD FOR DETECTING DYSPLASIA” (priority 2008, published 2011)
pKd: −log10 of the molar value.

Experiments:
[1] = target: human recombinant EGFR/Fc chimera (R&D systems, cat. no 344-ER) (human) (UniProt P00533); assay: fluorescence polarization, 5 nM dye-labelled ligand, EGFR/Fc titrated 0-258 nM, in solution
human EGFR = target: T1, human EGFR (Homo sapiens, UniProt P00533); assay: Fluorescence polarization binding assay; details: dye-labelled ligand 5 nM; human recombinant EGFR/Fc chimera 0-258 nM; 10 min at 30° C.; triplicates; read-out: Kd value towards human EGFR
T1 construct: purchased R&D systems 344-ER
Description: The fluorescence polarization binding measurements were performed as triplicates in 384-well microplates in a volume of 40 μL in binding buffer (PBS, 0.01% Tween-20, pH 7.5) using a Tecan Safire fluorescence polarisation plate reader at ex646/em678 nm. The concentration of dye-labelled ligand was held constant (5 nM) and the concentrations of the target (human recombinant EGFR/Fc chimera from R&D systems, cat. no 344-ER) was varied from 0-258 nM. Binding mixtures were equilibrated in the microplate for 10 min at 30° C.
Data fitting was performed via nonlinear regression using SigmaPlot software (version 10) to obtain the Kd value.

pKd [1]	pKd (human EGFR)	Substance
8.39	–	anti-EGFR Affibody His6-ZEGFR:1907-Cys(Cy5**) (Compound 14) (designed binder)
–	8.39	anti-EGFR Affibody His6-ZEGFR:1907-Cys(Cy5**) [Compound 14]
